Results: patent US20260167699A1 (Chugai, published 2026)

Target: T1, FcγRIIIa (human, UniProt P08637 17-208)
T1 construct: extracellular domain; also called 3a; FcγRIIIa extracellular domain
Test: SPR (Biacore);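 note: antibody variants captured on an SPR sensor chip, with FcγRIIIa passed over as analyte in HBS-EP+ buffer at 25 °C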

T1 sequence (P08637 other isoform, or with tags, fused parts or gaps): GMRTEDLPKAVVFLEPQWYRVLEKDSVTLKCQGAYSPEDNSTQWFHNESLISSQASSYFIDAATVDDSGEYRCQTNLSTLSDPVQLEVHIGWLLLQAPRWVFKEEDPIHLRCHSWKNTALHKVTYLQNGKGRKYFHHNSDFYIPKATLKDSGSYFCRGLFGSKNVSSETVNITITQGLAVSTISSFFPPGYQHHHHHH

Binder	He/Con 3a
GpH7-A5/GpH7-B3 variant P271_02A/GpL16-k0 (antibody, human IgG1, kappa, copies: 1 + 1 + 2) heavy 1: not shown heavy 2: not shown light: DIVMTQSPLSLPVTPGEPASISCQASESLVHSNRNTYLHWYLQKPGQSPQLLIYKVSNRFSGVPDRFSGSGSGTDFTLKISRVEAEDVGVYYCSQNTHVPPTFGQGTKVEIERTVAAPSVFIFPPSDEQLKSGTASVVCLLNNFYPREAKVQWKVDNALQSGNSQESVTEQDSKDSTYSLSSTLTLSKADYEKHKVYACEVTHQGLSSPVTKSFNRGEC	83.7 % of GpH7-A5/GpH7-B3/GpL16-k0
GpH7-A5/GpH7-B3 variant P271_18N/GpL16-k0 (antibody, human IgG1, kappa, copies: 1 + 1 + 2) heavy 1: not shown heavy 2: not shown light: DIVMTQSPLSLPVTPGEPASISCQASESLVHSNRNTYLHWYLQKPGQSPQLLIYKVSNRFSGVPDRFSGSGSGTDFTLKISRVEAEDVGVYYCSQNTHVPPTFGQGTKVEIERTVAAPSVFIFPPSDEQLKSGTASVVCLLNNFYPREAKVQWKVDNALQSGNSQESVTEQDSKDSTYSLSSTLTLSKADYEKHKVYACEVTHQGLSSPVTKSFNRGEC	94 % of GpH7-A5/GpH7-B3/GpL16-k0
GpH7-A5/GpH7-B3 variant P271_09D/GpL16-k0 (antibody, human IgG1, kappa, copies: 1 + 1 + 2) heavy 1: not shown heavy 2: not shown light: DIVMTQSPLSLPVTPGEPASISCQASESLVHSNRNTYLHWYLQKPGQSPQLLIYKVSNRFSGVPDRFSGSGSGTDFTLKISRVEAEDVGVYYCSQNTHVPPTFGQGTKVEIERTVAAPSVFIFPPSDEQLKSGTASVVCLLNNFYPREAKVQWKVDNALQSGNSQESVTEQDSKDSTYSLSSTLTLSKADYEKHKVYACEVTHQGLSSPVTKSFNRGEC	97.7 % of GpH7-A5/GpH7-B3/GpL16-k0
GpH7-A5/GpH7-B3 variant P271_14T/GpL16-k0 (antibody, human IgG1, kappa, copies: 1 + 1 + 2) heavy 1: not shown heavy 2: not shown light: DIVMTQSPLSLPVTPGEPASISCQASESLVHSNRNTYLHWYLQKPGQSPQLLIYKVSNRFSGVPDRFSGSGSGTDFTLKISRVEAEDVGVYYCSQNTHVPPTFGQGTKVEIERTVAAPSVFIFPPSDEQLKSGTASVVCLLNNFYPREAKVQWKVDNALQSGNSQESVTEQDSKDSTYSLSSTLTLSKADYEKHKVYACEVTHQGLSSPVTKSFNRGEC	59.2 % of GpH7-A5/GpH7-B3/GpL16-k0
GpH7-A5/GpH7-B3 variant P271_12R/GpL16-k0 (antibody, human IgG1, kappa, copies: 1 + 1 + 2) heavy 1: not shown heavy 2: not shown light: DIVMTQSPLSLPVTPGEPASISCQASESLVHSNRNTYLHWYLQKPGQSPQLLIYKVSNRFSGVPDRFSGSGSGTDFTLKISRVEAEDVGVYYCSQNTHVPPTFGQGTKVEIERTVAAPSVFIFPPSDEQLKSGTASVVCLLNNFYPREAKVQWKVDNALQSGNSQESVTEQDSKDSTYSLSSTLTLSKADYEKHKVYACEVTHQGLSSPVTKSFNRGEC	87.6 % of GpH7-A5/GpH7-B3/GpL16-k0
GpH7-A5/GpH7-B3 variant P238_08L/GpL16-k0 (antibody, human IgG1, kappa, copies: 1 + 1 + 2) heavy 1: not shown heavy 2: not shown light: DIVMTQSPLSLPVTPGEPASISCQASESLVHSNRNTYLHWYLQKPGQSPQLLIYKVSNRFSGVPDRFSGSGSGTDFTLKISRVEAEDVGVYYCSQNTHVPPTFGQGTKVEIERTVAAPSVFIFPPSDEQLKSGTASVVCLLNNFYPREAKVQWKVDNALQSGNSQESVTEQDSKDSTYSLSSTLTLSKADYEKHKVYACEVTHQGLSSPVTKSFNRGEC	71.3 % of GpH7-A5/GpH7-B3/GpL16-k0
GpH7-A5/GpH7-B3 variant P271_10E/GpL16-k0 (antibody, human IgG1, kappa, copies: 1 + 1 + 2) heavy 1: not shown heavy 2: not shown light: DIVMTQSPLSLPVTPGEPASISCQASESLVHSNRNTYLHWYLQKPGQSPQLLIYKVSNRFSGVPDRFSGSGSGTDFTLKISRVEAEDVGVYYCSQNTHVPPTFGQGTKVEIERTVAAPSVFIFPPSDEQLKSGTASVVCLLNNFYPREAKVQWKVDNALQSGNSQESVTEQDSKDSTYSLSSTLTLSKADYEKHKVYACEVTHQGLSSPVTKSFNRGEC	98.2 % of GpH7-A5/GpH7-B3/GpL16-k0
GpH7-A5/GpH7-B3 variant P271_07I/GpL16-k0 (antibody, human IgG1, kappa, copies: 1 + 1 + 2) heavy 1: not shown heavy 2: not shown light: DIVMTQSPLSLPVTPGEPASISCQASESLVHSNRNTYLHWYLQKPGQSPQLLIYKVSNRFSGVPDRFSGSGSGTDFTLKISRVEAEDVGVYYCSQNTHVPPTFGQGTKVEIERTVAAPSVFIFPPSDEQLKSGTASVVCLLNNFYPREAKVQWKVDNALQSGNSQESVTEQDSKDSTYSLSSTLTLSKADYEKHKVYACEVTHQGLSSPVTKSFNRGEC	80.2 % of GpH7-A5/GpH7-B3/GpL16-k0
GpH7-A5/GpH7-B3 variant P271_01G/GpL16-k0 (antibody, human IgG1, kappa, copies: 1 + 1 + 2) heavy 1: not shown heavy 2: not shown light: DIVMTQSPLSLPVTPGEPASISCQASESLVHSNRNTYLHWYLQKPGQSPQLLIYKVSNRFSGVPDRFSGSGSGTDFTLKISRVEAEDVGVYYCSQNTHVPPTFGQGTKVEIERTVAAPSVFIFPPSDEQLKSGTASVVCLLNNFYPREAKVQWKVDNALQSGNSQESVTEQDSKDSTYSLSSTLTLSKADYEKHKVYACEVTHQGLSSPVTKSFNRGEC	119 % of GpH7-A5/GpH7-B3/GpL16-k0
GpH7-A5/GpH7-B3 variant P271_19Q/GpL16-k0 (antibody, human IgG1, kappa, copies: 1 + 1 + 2) heavy 1: not shown heavy 2: not shown light: DIVMTQSPLSLPVTPGEPASISCQASESLVHSNRNTYLHWYLQKPGQSPQLLIYKVSNRFSGVPDRFSGSGSGTDFTLKISRVEAEDVGVYYCSQNTHVPPTFGQGTKVEIERTVAAPSVFIFPPSDEQLKSGTASVVCLLNNFYPREAKVQWKVDNALQSGNSQESVTEQDSKDSTYSLSSTLTLSKADYEKHKVYACEVTHQGLSSPVTKSFNRGEC	84.6 % of GpH7-A5/GpH7-B3/GpL16-k0
GpH7-A5/GpH7-B3 variant P238_19Q/GpL16-k0 (antibody, human IgG1, kappa, copies: 1 + 1 + 2) heavy 1: not shown heavy 2: not shown light: DIVMTQSPLSLPVTPGEPASISCQASESLVHSNRNTYLHWYLQKPGQSPQLLIYKVSNRFSGVPDRFSGSGSGTDFTLKISRVEAEDVGVYYCSQNTHVPPTFGQGTKVEIERTVAAPSVFIFPPSDEQLKSGTASVVCLLNNFYPREAKVQWKVDNALQSGNSQESVTEQDSKDSTYSLSSTLTLSKADYEKHKVYACEVTHQGLSSPVTKSFNRGEC	52.7 % of GpH7-A5/GpH7-B3/GpL16-k0
GpH7-A5/GpH7-B3 variant P271_15Y/GpL16-k0 (antibody, human IgG1, kappa, copies: 1 + 1 + 2) heavy 1: not shown heavy 2: not shown light: DIVMTQSPLSLPVTPGEPASISCQASESLVHSNRNTYLHWYLQKPGQSPQLLIYKVSNRFSGVPDRFSGSGSGTDFTLKISRVEAEDVGVYYCSQNTHVPPTFGQGTKVEIERTVAAPSVFIFPPSDEQLKSGTASVVCLLNNFYPREAKVQWKVDNALQSGNSQESVTEQDSKDSTYSLSSTLTLSKADYEKHKVYACEVTHQGLSSPVTKSFNRGEC	62.7 % of GpH7-A5/GpH7-B3/GpL16-k0
